These results are taken from patent US20190359693A1.

Common to all, as to assay: cell-based or functional assay
Assay [1] concerns the target HA of B/Florida/04/2006 (Yamagata) (influenza B virus).
The target in assay [2] is HA of H1N1 A/New Caledonia/20/1999 (influenza A virus).
Assay [3] deals with HA of H1N1 A/Puerto Rico/8/34-MA (influenza A virus).
For assay [4], the target named is HA of H3N2 A/Brisbane/10/2007 (influenza A virus).
Assay [5] addresses HA of H3N2 A/Wisconsin/67/2005 (influenza A virus).
The target in assay [6] is HA of H5N1 A/Vietnam/1194/04 (influenza A virus).
For assay [7], the target named is HA of H7N3 A/NIBRG/60 (A/mallard/NL/12/00) (influenza A virus).
Assay [8] deals with hemagglutinin (HA) of influenza virus B/Brisbane/60/08 (Victoria) (influenza B virus).
Assay [9] has as its target hemagglutinin (HA) of influenza virus B/Florida/04/06 (Yamagata) (influenza B virus).
For assay [10], the target named is hemagglutinin (HA) of influenza virus B/Harbin/7/94 (Yamagata) (influenza B virus).
The target in assay [11] is hemagglutinin (HA) of influenza virus B/Lee/40 (Old) (influenza B virus) (UniProt P03460).
Assay [12] addresses hemagglutinin (HA) of influenza virus B/Malaysia/2506/04 (Victoria) (influenza B virus).
Assay [13] concerns the target HA of H1N1 A/Brisbane/59/07 (influenza A virus).
The target of assay [14] is hemagglutinin (HA) of influenza virus H1N1 A/Puerto Rico/8/34-MA (influenza A virus).
For assay [15], the target named is hemagglutinin (HA) of influenza virus H3N2 A/HK/1/68-MA (influenza A virus).
The target of assay [16] is hemagglutinin (HA) of influenza virus H5N1 A/Vietnam/1194/04 (influenza A virus).
Assay [17] deals with hemagglutinin (HA) of influenza virus H7N3 A/NIBRG/60 (A/mallard/Netherlands/12/00) (influenza A virus).
In assay [18] the target is HA of H5N1 A/PR8 H5N1 HK97 (influenza A virus).
For assay [19], the target named is hemagglutinin (HA) of influenza A/Brisbane/10/07 (H3N2) (influenza A virus A/Brisbane/10/07 (H3N2)).
The target of assay [20] is hemagglutinin (HA) of influenza A/California/07/09 (H1N1) (influenza A virus A/California/07/09 (H1N1)).
For assay [21], the target named is hemagglutinin (HA) of influenza A/New Caledonia/20/99 (H1N1) (influenza A virus A/New Caledonia/20/99 (H1N1)).
Assay [22] addresses hemagglutinin (HA) of influenza A/Vietnam/1194/04 (H5N1) (influenza A virus A/Vietnam/1194/04 (H5N1)).
For assay [23], the target named is hemagglutinin (HA) of influenza A/Hong Kong/1/68 (H3N2) (influenza A virus A/Hong Kong/1/68 (H3N2)) (UniProt Q91MA7).

Substitutions are numbered along the chain they refer to.

B1: SD1070 (VHH)
VHH: EVQLVESGGGLVQAGGSLRISCAASGRTFSIYSMGWFRQAPGKEREFVATIGWNSGRTFYADSMKERFTISADNARNTLYLQMNSLKFEDTAVYYCAAAKGPLRLSSQADYWGQGTQVTVSS
In the case of B1, the VNA titer in assay [1] is > 1000 nM; in assay [2], > 1000 nM; in assay [3], > 1000 nM; in assay [4], 15.3 nM; in assay [5] it was > 1000 nM; in assay [6], > 1000 nM. Besides, the VNA titer in assay [7] was determined as 366 nM.

B2: MD1224 (VHH)
chain: EVQLVESGGGLVQPGGSLKLSCAASGFTFSTSWMYWLRQAPGKGLEWVSVINTDGGTYYADSVKDRFTISRDNAKDTLYLQMSSLKSEDTAVYYCAKDWGGPEPTRGQGTQVTVSSAAAGGGGSGGGGSGGGGSGGGGSGGGGSGGGGSGGGGSEVQLVESGGGLVQPGGSLKLSCAASGFTFSTSWMYWLRQAPGKGLEWVSVINTDGGTYYADSVKDRFTISRDNAKDTLYLQMSSLKSEDTAVYYCAKDWGGPEPTRGQGTQVTVSS
B2: the neutralization titer in assay [8] turned out to be 4.1 nM; in assay [9], 0.8 nM; in assay [10], 4.5 nM; in assay [11] it was 33 nM; in assay [12], 2.7 nM.

B3: SD1017 (VHH)
VHH: EVQLVESGGGLVQAGGSLRLSCAASGRTYAMAWFRQAPGKEREFVAHINALGTRAYYSDSVEGRFTISRDNAKNTGYLQMNSLEPEDTAVYVCAAGGQWRAAPVADAAQYDFWGQGTQVTVSS
For B3, the VNA titer is > 1000 nM in [13]; > 1000 nM in [2]; > 1000 nM in [4]; > 1000 nM in assay [6]; 34.7 nM in [7].

B4: SD2020 (VHH)
VHH: EVQLVESGGGLVQPGGSLRLSCAAAGGAFNRQLVAWFRQAPGKKREFVATVTTSGGSSYYADSVKGRFTISRDTAKNTVALQMNSLKAEDAAVYYCAARDSFTVAPYYPPESYAYWGQGTQVTVSS
Take B4: the VNA titer was 9.3 nM in assay [4], 304 nM in [5], > 1000 nM in [6] and > 1000 nM in assay [7].

B5: MD2404 (bispecific antibody)
chain: EVQLVESGGGLVQPGGSLRLSCAVSISIFDIYAMDWYRQAPGKQRDLVATSFRDGSTNYADSVKGRFTISRDNAKNTLYLQMNSLKPEDTAVYLCHVSLYRDPLGVAGGMGVYWGKGALVTVSSAAAGGGGSGGGGSGGGGSGGGGSGGGGSGGGGSGGGGSEVQLVESGGGLVQAGGSLKLSCAASGRTYAMGWFRQAPGKEREFVAHINALGTRTYYSDSVKGRFTISRDNAKNTEYLEMNNLKPEDTAVYYCTAQGQWRAAPVAVAAEYEFWGQGTQVTVSSLINLEGGGGSGGGGSGGGGSGGGGSGGGGSGGGGSGGGGSPAGEVQLVESGGGLVQPGGSLKLSCAASGFTFSTSWMYWLRQAPGKGLEWVSVINTDGGTYYADSVKDRFTISRDNAKDTLYLQMSSLKSEDTAVYYCAKDWGGPEPTRGQGTQVTVSSAAAGGGGSGGGGSGGGGSGGGGSGGGGSGGGGSGGGGSEVQLVESGGGLVQPGGSLKLSCAASGFTFSTSWMYWLRQAPGKGLEWVSVINTDGGTYYADSVKDRFTISRDNAKDTLYLQMSSLKSEDTAVYYCAKDWGGPEPTRGQGTQVTVSS
Regarding B5, the average neutralization titer in assay [9] was determined as 2.1 nM; in assay [11], 30.3 nM; in [14] it was 12.2 nM; in [15], 57.7 nM; in assay [16], 20.4 nM; in assay [17], 34.3 nM.

B6: MD1222 (bispecific antibody)
chain: EVQLVESGGGLVQPGGSLRLSCAATGFTLENKAIGWFRQTPGSEREGVLCISKSGSWTYYTDSMRGRFTISRDNAENTVYLQMDSLKPEDTAVYYCATTTAGGGLCWDGTTFSRLASSWGQGTQVTVSSAAAGGGGSGGGGSGGGGSGGGGSGGGGSGGGGSGGGGSEVQLVESGGGLVQPGGSLKLSCAASGFTFSTSWMYWLRQAPGKGLEWVSVINTDGGTYYADSVKDRFTISRDNAKDTLYLQMSSLKSEDTAVYYCAKDWGGPEPTRGQGTQVTVSS
As for B6, the neutralization titer was found to be 3 nM in assay [8]; 2.1 nM in assay [9]; 7.2 nM in assay [10]; 12.7 nM in assay [11]; 3.6 nM in assay [12].

B7: MD2402 (protein)
chain: EVQLVESGGGLVQPGGSLRLSCAVSISIFDIYAMDWYRQAPGKQRDLVATSFRDGSTNYADSVKGRFTISRDNAKNTLYLQMNSLKPEDTAVYLCHVSLYRDPLGVAGGMGVYWGKGALVTVSSAAAGGGGSGGGGSGGGGSGGGGSGGGGSGGGGSGGGGSEVQLVESGGGLVQAGGSLKLSCAASGRTYAMGWFRQAPGKEREFVAHINALGTRTYYSDSVKGRFTISRDNAKNTEYLEMNNLKPEDTAVYYCTAQGQWRAAPVAVAAEYEFWGQGTQVTVSSLINLEGGGGSGGGGSGGGGSGGGGSGGGGSGGGGSGGGGSPAGEVQLVESGGGLVQPGGSLRLSCAATGFTLENKAIGWFRQTPGSEREGVLCISKSGSWTYYTDSMRGRFTISRDNAENTVYLQMDSLKPEDTAVYYCATTTAGGGLCWDGTTFSRLASSWGQGTQVTVSSAAAGGGGSGGGGSGGGGSGGGGSGGGGSGGGGSGGGGSEVQLVESGGGLVQPGGSLKLSCAASGFTFSTSWMYWLRQAPGKGLEWVSVINTDGGTYYADSVKDRFTISRDNAKDTLYLQMSSLKSEDTAVYYCAKDWGGPEPTRGQGTQVTVSS
In the case of B7, the average neutralization titer in assay [9] stood at 14.1 nM; in assay [11] it was 35.4 nM; in [14] it was 12.8 nM; in assay [15], 28.3 nM; in assay [16], 23.8 nM; in [17], 33.6 nM.

B8: SD1049 (VHH)
VHH: EVQLVESGGGLVQAGGSLRLSCAASGRTLSLYSVGWFRQAPGKEREFVATIGWNSGRTFYVDSMKGRFTISRDNAKNTVYLQMNDLKVEDTAVYYCAAAKGPLRLSNQADYWGQGTQVTVSS
For B8, the VNA titer in [13] is > 1000 nM; in assay [2], > 1000 nM; in assay [4], 19.1 nM; in assay [5], > 1000 nM; in assay [6], > 1000 nM; in [7], 115 nM.

B9: SD1076 (VHH)
VHH: EVQLVESGGGLVQAGGSLTLSCAGSGFAFSIATMGWYRQAPGKQRELVADITSGGSTNYADSVKGRFTISRDNAKNTVYLQMNSLKPEDTAVYYCNADSLATGWRQYSYWGKGTQVTVSS
On to B9, for which the VNA titer in assay [2] is 22.1 nM; in assay [3], 8.7 nM; in assay [4] it was > 1000 nM; in assay [5] it was > 1000 nM; in assay [18], 66.8 nM; in assay [6], 84.7 nM. Besides, the VNA titer in assay [7] was > 1000 nM.

B10: SD3021 (VHH)
VHH: EVQLVESGGGVVQPGGSLRLSCAASISIFDIYAMDWYRQAPGKQRELVAVSFRDGSTYYADSVKGRFTISRDNSKNTLYLQMNSLRPEDTAVYLCHVSLYRDPLGVAGGLGVYWGKGALVTVSS
For the molecule B10, the VNA IC50 in assay [19] was > 1000 nM; in [20], 3 nM; in assay [21], 3 nM; in assay [22], 15 nM.

B11: SD3030 (VHH)
VHH: B10 VHH with V11L, A24V, E46D, V50T, Y58N, S74A, R86K, L110I
On to B11, for which the VNA IC50 was 274 nM in [19]; 3 nM in assay [20]; 126 nM in [23]; 8 nM in [21]; 20 nM in assay [22].

B12: SD3029 (VHH)
VHH: B10 VHH with V11L, A24V, E46D, V50T, Y58N, S74A, R86K
For the molecule B12, the VNA IC50 in assay [19] amounted to 632 nM; in [20] it was 3 nM; in assay [23], 251 nM; in assay [21], 4 nM; in [22], 20 nM.

B13: SD3022 (VHH)
VHH: B10 VHH with L110I
With B13, the VNA IC50 in assay [19] was 632 nM; in assay [20] it was 3 nM; in assay [21], 8 nM; in assay [22] it was 20 nM.
